From paper PMC3845908 (Journal of the American Chemical Society, 2012)
Positions count from the first letter of the chain named. Names and notes keep the numbering of the source. Read-outs that look alike come from different tables or passages of the source.

B1: Streptomyces lividans KcsA R64C, MTSL spin-labelled (natural protein, UniProt P0A334 1-160, looked up)
chain: MPPMLSGLLARLVKLLLGRHGSALHWRAAGAATVLLVIVLLAGSYLAVLAERGAPGAQLITYPCALWWSVETATTVGYGDLYPVTLWGRLVAVVVMVAGITSFGLVTAALATWFVGREQERRGHFVRHSEKAAEEAYTRTTRALHERFDRLERMLDDNRR
modifications: MTSL spin label on the cysteine at 64
B2: Streptomyces lividans KcsA F114C full length, MTSL spin-labelled (natural protein, UniProt P0A334 1-160, looked up)
chain: B1 chain with C64R, F114C
modifications: MTSL spin label on the cysteine at 114

Legend:
[1] = biological target: the molecule itself; experiment: pulsed double electron-electron resonance
[2] = biological target: the molecule itself; experiment: pulsed double electron-electron resonance; remark: listed apart in the source

Protein | binding result [1] | binding result [2]
B1 | binds | 
B2 |  | binds
